According to US20250325718A1, “IMMUNOCONJUGATES COMPRISING KALLIKREIN RELATED PEPTIDASE 2 ANTIGEN BINDING DOMAINS AND THEIR USES” (Janssen Biotech, Inc., priority 2021, published 2025):

Columns and labels:
[1] = Thermal stability by Differential Scanning Fluorimetry (NanoDSF); assay type: physicochemical; conditions: 0.5 mg/mL in Phosphate Buffered Saline pH 7.4, 20-95 ° C. at 1.0 ° C./minute
Method: Thermal stability was determined by Differential Scanning Fluorimetry (NanoDSF) using an automated Prometheus instrument. NanoDSF was used to measure Tm of molecules at a concentration of 0.5 mg/mL in Phosphate Buffered Saline, pH 7.4. Measurements were made by loading samples into 24 well capillary from a 384 well sample plate. Duplicate runs were performed for each sample. The thermal scans span from 20° C., to 95° C. at a rate of 1.0° C./minute. Intrinsic tryptophan and tyrosine fluorescence were monitored at the emission wavelengths of 330 nm and 350 nm, and the F350/F330 nm ratio were plotted against temperature to generate unfolding curves.

soluble hK2 = soluble hK2 (Homo sapiens, UniProt P20151); test: Affinity of hK2 antibodies for soluble hK2 by surface plasmon resonance (SPR); assay type: binding; conditions: antibody captured on anti-Fc chip, soluble hK2 injected, 1:1 Langmuir fit, KD = koff/kon
soluble hK2, sequence (P20151 25-261): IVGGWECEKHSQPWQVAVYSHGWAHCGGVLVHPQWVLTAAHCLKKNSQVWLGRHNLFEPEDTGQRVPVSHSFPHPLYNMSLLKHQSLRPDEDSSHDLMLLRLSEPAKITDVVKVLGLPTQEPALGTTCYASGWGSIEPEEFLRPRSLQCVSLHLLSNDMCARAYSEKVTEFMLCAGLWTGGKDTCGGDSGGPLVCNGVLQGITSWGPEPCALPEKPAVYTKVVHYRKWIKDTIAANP
Method: Affinity of selected hK2 antibodies for soluble hK2 was measured by surface plasmon resonance (SPR). SPR is a label-free technique to study the strength of an interaction between two binding partners by measuring the change in mass upon complex formation and dissociation. Antibodies were captured on a sensor chip coated with an anti-Fc antibody followed by injection of soluble hK2 at various concentrations and specified association and dissociation times. Post dissociation, the surface was regenerated with an appropriate solution to prepare for the next interaction. Kinetic information (on-rate and off-rate constants) were extracted by fitting sensorgrams to the 1:1 Langmuir model. Binding affinity (KD) are reported as the ratio of rate constants (koff/kon).

hK2-positive VCaP cells = test: Target cell binding by flow cytometry, hK2-positive cells; assay type: cell-based; conditions: 4° C. 60 minutes, anti-Human F(ab′)2 secondary detection, live cells
Text: To evaluate target cell binding of the KL2B30 Fab with different conjugation variants, VCaP cells were used as hK2-positive target cells and DU145 cells were used as hK2-negative cells. KL2B30 parental antibody (comprising a heavy chain and light chain of SEQ ID NO: 210 and SEQ ID NO: 221, respectively) and hul1B6 (an anti-hK2 antibody, also referred to herein as h11B6, comprising a heavy chain and light chain of SEQ ID NO: 203 and SEQ ID NO: 215, respectively) were included as positive controls. The h11B6 antibody is described in U.S. Pat. No. 10,100,125, which is incorporated by reference herein. An anti-Human F(ab′)2 fragment specific secondary detection antibody was used for detecting Fab-based binding. Test antibodies were incubated with target cells at 4° C. for 60 minutes and detected by secondary staining. Cell binding was quantified by flow cytometry based on secondary antibody binding signal and gated from on live cells.

Molecule | Tm (° C.) [1] [°C] | also measured
KL2B359 (scFv-LH-Fc): anti-hK2 clone from the re-humanization campaign of 11B6; VH SEQ ID NO: 139, VL SEQ ID NO: 140 (protein, left off: a dimerising Fc or GST; small tags and cut ends) scFv: EIVLTQSPATLSLSPGERATLSCRASESVEYFGTSLMHWYQQKPGQPPRLLIYAASNVESGIPARFSGSGSGTDFTLTISSVEPEDFAVYFCQQTRKVPYTFGGGTKVEIKGGSEGKSSGSGSESKSTGGSQVQLQESGPGLVKPSQTLSLTCTVSGNSITSDYAWNWIRQFPGKRLEWIGYISYSGSTTYNPSLKSRVTISRDTSKNQFSLKLSSVTAADTAVYYCATGYYYGSGFWGQGTLVTVSS | 67 | 
KL2B242 (Fab): anti-hK2 antibody; VH SEQ ID NO: 166, VL SEQ ID NO: 167 (antibody, V domains shown) VH: QVQLQESGPGLVKPSETLSLTCTVSGGSISSYYWSWLRQPAGSGLEWIGRLYVSGFTNYNPSLKSRVTLSLDPSRNQLSLKLSSVTAADTAVYYCAGDSGNYWGWFDPWGQGTLVTVSS VL: SYELTQPPSVSVSPGETASITCSGDQLGENYACWYQQKPGQSPVLVIYQDSKRPSGIPERFSGSNSGNTATLTISGTQALDEADYYCQAWDNSIVVFGGGTKLTVL | >70 | 
KL2B53 (Fab): anti-hK2 antibody; VH SEQ ID NO: 164, VL SEQ ID NO: 165 (antibody, V domains shown) VH: EVQLVESGGGVVQPGRSLRLSCVASGFTFSSYDIHWVRQAPGKGLEWVAIISYDGSKKDYTDSVKGRFTISRDNSKNTLYLQMDSLRVEDSAVYSCARESGWSHYYYYGMDVWGQGTMVTVSS VL: DIVMTQSPSSLSASVGDRVTITCRASQDISNYLAWYQQKPGKVPKFLIYAASTLHSGVPSRFSGSGSGTDFTLTISSLQPEDVATYYCQKYNSAPYTFGQGTRLEIK | >70 | 
KL2B467 (Fab): anti-hK2 antibody from OmniRat immunization; VH SEQ ID NO: 168, VL SEQ ID NO: 169 (antibody, V domains shown) VH: QVQLVESGGGVVQPGRSLRLSCAASGFTFSYYGMHWVRQAPGKGLEWVAFISYDGSNKYYADSVKGRFTISRDNSKNTLYLQMNSLRAEDTAVYYCAHLPYSGSYWAFDYWGQGTQVTVSS VL: QSVLTQPPSVSVAPGQTASITCGGDNIGSKSVHWYQQKPGQAPVLVVYDNSDRPSGIPERFSGSNSGTTATLTISRVEAGDEADYYCQVWDSSSDHPVVFGGGTKVTV | >70 | 
KL2B413 (scFv-LH-Fc): anti-hK2 antibody from Ablexis mice immunization; VH SEQ ID NO: 137, VL SEQ ID NO: 138 (protein) chain 1: EVQLVESGGGLVQPGGSLRLSCAASGFTFSSYWMTWVRQAPGKGLEWVANIKQDGSERYYVDSVKGRFTISRDNAKNSLYLQMNSLRAEDTAVYYCARDQNYDILTGHYGMDVWGQGTTVTVSS chain 2: EIVLTQSPSFLSASVGDRVTITCRASQGISSYLSWYQQKPGKAPKLLIYATSTLQSGVPSRFSGSGSGTEFTLTISSLQPEDFATYYCQQLNSYPRTFGQGTKVEIK |  | Kd (soluble hK2): 34.3 nM; Kd (soluble hK2; listed as KL2B413 scFv): ~34 nM
KL2B997 SORT: KL2B997 site-specific ADC prepared via the sortase tag with Gly3-vcMMAF (conjugate, left off: a dimerising Fc or GST; large carriers, KL2B997 site-specific ADC prepared via the sortase tag with Gly3-vcMMAF) heavy: QVQLQESGPGLVKPSETLSLTCTVSGGSISSYYWSWIRQPPGKGLEWIGYIYYSGSTNYNPSLKSRVTISVDTSKNQFSLKLSSVTAADTAVYYCAGTTIFGVVTPNFYYGMDVWGQGTTVTVSS light: DIQMTQSPSFLSASVGDRVTITCRASQGISSYLAWYQQKPGKAPKFLIYAASTLQSGVPSRFSGSGSGTEFTLTISSLQPEDFATYYCQQLNSYPLTFGGGTKVEIK |  | cell binding to hK2-positive VCaP cells (hK2-positive VCaP cells): positive and dose-dependent cell binding
